Test results: patent publication US20250084169A1 (published 2025)
Like-named read-outs stand apart in the source and are kept apart here.

Assays:
[1] = target: T1, recombinant human Fc gamma RIIIa (CD16a) 158V (human, UniProt P08637 17-208)
[2] = target: T2, recombinant human Fc gamma RIIb/c (CD32b/c) (human, UniProt P31994 46-217)
T2 sequence (looked up): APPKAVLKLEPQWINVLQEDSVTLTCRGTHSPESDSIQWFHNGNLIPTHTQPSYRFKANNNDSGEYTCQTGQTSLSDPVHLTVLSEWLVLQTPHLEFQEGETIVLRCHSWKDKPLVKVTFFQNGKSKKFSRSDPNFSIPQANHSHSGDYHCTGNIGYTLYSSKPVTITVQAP

[3] = target: T3, recombinant human Fc gamma RIIIb (CD16b) (human, UniProt O75015 17-200)
T3 sequence (O75015 17-200 limits assumed): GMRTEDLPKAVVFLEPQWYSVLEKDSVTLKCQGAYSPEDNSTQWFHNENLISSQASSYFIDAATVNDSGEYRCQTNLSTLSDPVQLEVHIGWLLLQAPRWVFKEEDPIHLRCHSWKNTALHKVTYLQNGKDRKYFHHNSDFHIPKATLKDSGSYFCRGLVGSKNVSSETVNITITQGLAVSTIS

[4] = target: T4, recombinant human Fc gamma RIIa (CD32a) 131H (human, UniProt P12318 36-218)
T4 sequence (looked up): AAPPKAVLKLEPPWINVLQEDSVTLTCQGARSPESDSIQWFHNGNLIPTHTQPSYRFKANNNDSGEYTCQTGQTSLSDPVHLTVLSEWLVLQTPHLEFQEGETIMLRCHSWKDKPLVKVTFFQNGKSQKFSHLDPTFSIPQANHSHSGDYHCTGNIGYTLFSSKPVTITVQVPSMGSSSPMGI

[5] = target: T5, recombinant human Fc gamma RI (CD64) (human, UniProt P12314 16-288)
T5 sequence (P12314 16-288 limits assumed): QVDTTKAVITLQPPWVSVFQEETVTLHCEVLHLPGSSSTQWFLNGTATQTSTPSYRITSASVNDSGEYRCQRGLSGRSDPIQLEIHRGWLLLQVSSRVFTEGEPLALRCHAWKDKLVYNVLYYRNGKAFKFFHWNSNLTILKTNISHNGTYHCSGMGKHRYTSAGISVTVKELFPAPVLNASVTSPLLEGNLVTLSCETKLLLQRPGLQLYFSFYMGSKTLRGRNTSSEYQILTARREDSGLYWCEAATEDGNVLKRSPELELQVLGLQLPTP

[6] = target: T6, recombinant human Fc gamma RIIIa (CD16a) 158F (human, UniProt P08637 17-208)
T6 sequence (P08637 17-208 limits assumed): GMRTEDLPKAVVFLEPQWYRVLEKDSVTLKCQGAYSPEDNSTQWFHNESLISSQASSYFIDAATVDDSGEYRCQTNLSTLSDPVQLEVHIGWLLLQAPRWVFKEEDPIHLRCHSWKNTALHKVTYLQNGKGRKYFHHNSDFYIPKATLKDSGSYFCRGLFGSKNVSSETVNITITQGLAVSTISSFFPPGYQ

[7] = target: T7, recombinant human Fc gamma RIIa (CD32a) 131R (human, UniProt P12318 36-218)
T7 sequence (looked up): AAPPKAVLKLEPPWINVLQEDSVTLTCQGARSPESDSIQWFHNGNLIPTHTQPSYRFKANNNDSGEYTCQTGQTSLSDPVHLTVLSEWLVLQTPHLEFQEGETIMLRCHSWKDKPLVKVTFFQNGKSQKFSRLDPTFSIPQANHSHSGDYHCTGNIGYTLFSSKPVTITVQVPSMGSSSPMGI

[8] = target: T1, recombinant human Fc gamma RIIIa …; remark: listed apart in the source
[9] = target: T3, recombinant human Fc gamma RIIIb (CD16b); remark: listed apart in the source
[10] = target: T6, recombinant human Fc gamma RIIIa …; remark: listed apart in the source
recombinant human CD19 = target: T8, recombinant human CD19 (human, UniProt P15391 20-291)
T8 sequence (looked up): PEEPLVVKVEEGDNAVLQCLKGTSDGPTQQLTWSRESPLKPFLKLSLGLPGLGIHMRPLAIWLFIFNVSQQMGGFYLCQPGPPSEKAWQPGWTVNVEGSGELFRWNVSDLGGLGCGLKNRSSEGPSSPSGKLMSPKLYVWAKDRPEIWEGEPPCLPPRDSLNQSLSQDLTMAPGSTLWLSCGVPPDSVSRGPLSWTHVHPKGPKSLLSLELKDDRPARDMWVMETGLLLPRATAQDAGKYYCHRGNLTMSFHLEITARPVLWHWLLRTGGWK

[11] = target: T9, recombinant human full-length CD20 (human, UniProt P11836 1-297)
T9 sequence (looked up): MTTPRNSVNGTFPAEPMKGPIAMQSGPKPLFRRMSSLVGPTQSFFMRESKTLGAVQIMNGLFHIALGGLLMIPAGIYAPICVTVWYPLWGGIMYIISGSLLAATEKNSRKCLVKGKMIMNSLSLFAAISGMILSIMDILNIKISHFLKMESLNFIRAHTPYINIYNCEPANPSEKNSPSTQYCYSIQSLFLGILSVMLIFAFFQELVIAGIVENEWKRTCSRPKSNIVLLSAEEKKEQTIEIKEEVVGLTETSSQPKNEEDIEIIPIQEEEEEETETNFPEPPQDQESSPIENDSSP

[12] = target: T2, recombinant human Fc gamma RIIb/c …; remark: listed apart in the source
[13] = target: T5, recombinant human Fc gamma RI (CD64); remark: listed apart in the source
[14] = target: T7, recombinant human Fc gamma RIIa (CD32a) …; remark: listed apart in the source
[15] = target: T10, cynomolgus monkey Fc gamma receptor CD32b (cynomolgus monkey)
[16] = target: T11, cynomolgus monkey Fc gamma receptor CD16 (cynomolgus monkey, UniProt Q8SPW2 17-208)
T11 sequence (Q8SPW2 17-208 limits assumed): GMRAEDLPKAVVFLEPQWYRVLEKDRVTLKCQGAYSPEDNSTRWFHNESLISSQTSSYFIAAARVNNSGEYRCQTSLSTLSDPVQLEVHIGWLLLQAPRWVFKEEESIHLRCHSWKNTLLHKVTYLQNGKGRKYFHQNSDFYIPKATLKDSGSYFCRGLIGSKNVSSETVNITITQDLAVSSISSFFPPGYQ

[17] = target: T12, cynomolgus monkey Fc gamma receptor CD32a (cynomolgus monkey)
[18] = target: T10, cynomolgus monkey Fc gamma receptor …; remark: listed apart in the source
[19] = target: T11, cynomolgus monkey Fc gamma receptor CD16; remark: listed apart in the source
[20] = target: T12, cynomolgus monkey Fc gamma receptor …; remark: listed apart in the source
[21] = target: T13, recombinant cynomolgus monkey CD19 (cynomolgus monkey, UniProt A0A2K5W8L9 20-292)
T13 sequence: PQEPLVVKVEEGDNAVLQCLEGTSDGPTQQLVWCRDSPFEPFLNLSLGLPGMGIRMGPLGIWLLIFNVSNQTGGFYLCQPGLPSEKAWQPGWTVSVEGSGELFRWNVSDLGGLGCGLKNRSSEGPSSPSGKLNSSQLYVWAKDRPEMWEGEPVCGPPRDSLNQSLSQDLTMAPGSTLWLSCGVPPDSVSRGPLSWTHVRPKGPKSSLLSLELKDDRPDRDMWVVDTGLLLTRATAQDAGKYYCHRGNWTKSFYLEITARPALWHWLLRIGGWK

[22] = target: T14, recombinant cynomolgus monkey CD20 (cynomolgus monkey, UniProt M4ZHZ6 1-297)
T14 sequence: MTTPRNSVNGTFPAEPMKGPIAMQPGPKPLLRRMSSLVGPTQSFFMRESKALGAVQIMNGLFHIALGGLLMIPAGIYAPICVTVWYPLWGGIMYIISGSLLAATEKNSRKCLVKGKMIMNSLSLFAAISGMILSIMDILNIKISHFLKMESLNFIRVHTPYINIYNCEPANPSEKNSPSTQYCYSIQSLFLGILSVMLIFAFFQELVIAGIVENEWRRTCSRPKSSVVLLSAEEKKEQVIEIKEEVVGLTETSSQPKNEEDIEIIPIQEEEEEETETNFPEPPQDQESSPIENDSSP

T1 sequence (P08637 17-208 F176V limits assumed): as the sequence (P08637 17-208 limits assumed) above, with F160V counted along it

B1: HB2198 (bispecific antibody, human IgG1, kappa)
heavy 1: QVQLVQSGGGVVQPGRSLRLSCAASGVSLPDYGVSWVRKAPGKGLEWVAVIWGSETTYYNSALKSRFTISRDNSKNTLYLQMSSLRAEDTAVYYCAKHYYYGGSFAMDYWGQGTLVTVSSASTKGPSVFPLAPSSKSTSGGTAALGCLVKDYFPEPVTVSWNSGALTSGVHTFPAVLQSSGLYSLESVVTVPSSSLGTQTYICNVNHKPSNTKVDKKVEPKSCTDWSPYADQSIKVRISLKSALGDKAYEWNDNEMYLFRSSVAYAMRQYFLKVKNQMILFGEEDVRVANLKPRISFNFFVTAPKNVSDIIPRTEVEKAIRMSRSRINDAFRLNDNSLEFLGIQPTLGPPNQPPVSTSTSPTRSMAPGAVHLPQPVSTRDKTHTCPPCPAPELLGGPDVFLFPPKPKDTLMISRTPEVTCVVVDVSHEDPEVKFNWYVDGVEVHNAKTKPREEQYNSTYRVVSVLTVLHQDWLNGKEYKCKVSNKALPAPEEKTISKAKGQPREPQVCTLPPSRDELTKNQVSLSCAVKGFYPSDIAVEWESNGQPENNYKTTPPVLDSDGSFFLVSKLTVDKSRWQQGNVFSCSVMHEALHNRFTQKSLSLSPG
heavy 2: QIVLSQSPAILSASPGEKVTMTCRASSSVSYIHWFQKKPGSSPKPWIYATSNLASGVPVRFSGSGSGTSYSLTISRVEAEDAATYYCQQWTSNPPTFGGGTKVEIKSSASTKGPSVFPLAPSSKSTSGGTAALGCLVKDYFPEPVTVSWNSGALTSGVHTFPAVLQSSGLYSLKSVVTVPSSSLGTQTYICNVNHKPSNTKVDKKVEPKSCDKTHTCPPCPAPELLGGPDVFLFPPKPKDTLMISRTPEVTCVVVDVSHEDPEVKFNWYVDGVEVHNAKTKPREEQYNSTYRVVSVLTVLHQDWLNGKEYKCKVSNKALPAPEEKTISKAKGQPREPQVYTLPPCRDELTKNQVSLWCLVKGFYPSDIAVEWESNGQPENNYKTTPPVLDSDGSFFLYSKLTVDKSRWQQGNVFSCSVMHEALHNHYTQKSLSLSPG
light 1: DIQMTQSPSSLSASVGDRVTITCRASQDISKYLNWYQEKPGKAIKLLIYHTSRLHSGVPSRFSGSGSGTDFTLTISSLQPEDFATYYCQQGATLPYTFGPGTKLEIKRTVAAPSVFIFPPSDEQLKSGTASVKCLLNNFYPREAKVQWKVDNALQSGNSQESVTEQDSKDSTYSLSSTLTLSKADYEKHKVYACEVTHQGLSSPVTKSFNRGEC
light 2: QVQLQQPGAELVKPGASVKMSCKASGYTFTSYNMHWVKETPGRGLEWIGAIYPGNGDTSYNQKFKGKATLTADKSSSTAYMQLSSLTSEDSAVYYCARSTYYGGDWYFNVWGAGTLVTVSSASVAAPSVFIFPPSDEQLKSGTASVECLLNNFYPREAKVQWKVDNALQSGNSQESVTEQDSKDSTYSLSSTLTLSKADYEKHKVYACEVTHQGLSSPVTKSFNRGEC
- Kd [1]: < 2 nM
- Kd [2]: 2.2 nM
- Kd [3]: < 2 nM
- Kd [4]: < 2 nM
- Kd [5]: < 0.02 nM
- Kd [6]: < 2 nM
- Kd [7]: < 2 nM
- Kd [8]: 4.19 nM
- Kd [9]: 95 nM
- Kd [10]: 15.7 nM
- Kd (recombinant human CD19): 1.5 nM
- Kd [11]: 0.2 nM
- Kd [12]: 283 nM
- Kd [13]: < 0.02 nM
- Kd [14]: 128 nM
- Kd [15]: 3.4 nM
- Kd [16]: 2 nM
- Kd [17]: 4 nM
- Kd [18]: 218 nM
- Kd [19]: 1.76 nM
- Kd [20]: 305 nM
- Kd [21]: 410 nM
- Kd [22]: 1.4 nM

B2: B19c66AAC9 (antibody, human IgG1, kappa)
light: not shown
heavy: QVQLQQSGAELVRPGSSVKISCKASGYAFSSYWMNWVKQRPGQGLEWIGQIWPGDGDTNYNGKFKGKATLTADESSSTAYMQLSSLASEDSAVYFCARRETTTVGRYYYAMDYWGQGTTVTVSSASTKGPSVFPLAPSSKSTSGGTAALGCLVKDYFPEPVTVSWNSGALTSGVHTFPAVLQSSGLYSLSSVVTVPSSSLGTQTYICNVNHKPSNTKVDKKVEPKSCDKTHTCPPCPAPKRRGGPSVFLFPPKPKDTLMISRTPEVTCVVVDVSHEDPEVKFNWYVDGVEVHNAKTKPREEQYNSTYRVVSVLTVLHQDWLNGKEYKCKVSNKALPAPIEKTISKAKGQPREPQVYVLPPSRDELTKNQVSLLCLVKGFYPSDIAVEWESNGQPENNYLTWPPVLDSDGSFFLYSKLTVDKSRWQQGNVFSCSVMHEALHNHYTQKSLSLSPGK
chain: CPPCPAPEDEGGPSVFLFPPKPKDTLMISRTPEVTCVVVDVSHEDPEVKFNWYVDGVEVHNAKTKPREEQYNSTYRVVSVLTVLHQDWLNGKEYKCKVSNKALPAPIEKTISKAKGQPREPQVYVYPPSRDELTKNQVSLTCLVKGFYPSDIAVEWESNGQPENNYKTTPPVLDSDGSFALVSKLTVDKSRWQQGNVFSCSVMHEALHNHYTQKSLSLSPGK
- Kd (CD19 (target of Table 9)): 21 nM
